Source: US20260194525A1

What was measured:
[1] = molecular target: commercially available recombinant antigen CEACAM1 (R&D Systems) (UniProt P13688); assay: ELISA on CEACAM1 coated in PBS; antibody 0.1 ug/mL with against without 10 ug/mL competitor polyclonal AF2244
[2] = molecular target: CEACAM1 in a cancer specimen having a high value of CEACAM1 (human) (UniProt P13688); assay: CLEIA sandwich without denaturation: 283324 on magnetic particles, biotin-labeled BAF2244 as detector; competitor AF2244 30 ug/mL added to a cancer specimen (FIG. 12)

Row | Substance | binding rate by addition of anti-CEACAM1 polyclonal antibody [1] [%] | quantitative value with the polyclonal antibody added (+) against not added (-) [2] [%]
1 | anti-CEACAM1 antibody 283324 (R&D Systems) | 41 | 3
2 | biotin-labeled anti-CEACAM1 antibody BAF2244 (R&D Systems) | 44.8 | –
